Source: publication PMC5759053

Target: Positive controls (Ci-M1; TRPV4-Ci, each with Ce-M1)
Assay: FRET or BRET

cerulean-AQP4 M1, sequence (P55088 whole entry): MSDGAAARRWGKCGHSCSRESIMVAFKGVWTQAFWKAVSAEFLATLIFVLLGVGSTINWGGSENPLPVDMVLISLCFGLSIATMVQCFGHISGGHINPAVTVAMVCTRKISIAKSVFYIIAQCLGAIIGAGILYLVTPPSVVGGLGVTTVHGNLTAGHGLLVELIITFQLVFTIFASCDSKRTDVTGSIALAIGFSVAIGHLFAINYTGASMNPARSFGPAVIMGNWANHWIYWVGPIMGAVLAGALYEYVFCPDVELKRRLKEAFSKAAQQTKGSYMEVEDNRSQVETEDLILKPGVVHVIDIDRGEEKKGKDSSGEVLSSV

cerulean-AQP4 M1 (from UniProt P55088-1 1-323) (natural protein)
FRET efficiency: 8 to 10%
